Where a chain is given by its changes, count along the chain named. Where two headings read alike, the source gives them in different places.
B1: 4D8.b1 (antibody, mouse IgG1, kappa)
light: DIVMTQSHKFMSTSVGDRVSITCKASQDVHTAVAWYQQKPGQSPRLLIYWASTRHTGVPDRFTGCGSGTDYTLTISSVQAEDLALYYCQQHYTTPYTFGGGTKLEMKADAAPTVSIFPPSSEQLTSGGASVVCFLNNFYPKDINVKWKIDGSERQNGVLNSWTDQDSKDSTYSMSSTLTLTKDEYERHNSYTCEATHKTSTSPIVKSFNRNEC
heavy: EVLLQQSGPELVKPGASVKIPCKASGYTFTDYNLDWVKQSHGKSLEWIGDINPINGATLYNQKFKGKATLTVDQSSSTAYMELRSLTSEDTAVYYCSIYYGDYDAMDYWGQGASVTVSSAKTTPPSVYPLAPGSAAQTNSMVTLGCLVKGYFPEPVTVTWNSGSLSSGVHTFPAVLQSDLYTLSSSVTVPSSTWPSETVTCNVAHPASSTKVDKKIVPRDCGCKPCICTVPEVSSVFIFPPKPKDVLTITLTPKVTCVVVDISKDDPEVQFSWFVDDVEVHTAQTQPREEQFNSTFRSVSELPIMHQDWLNGKEFKCRVNSAAFPAPIEKTISKTKGRPKAPQVYTIPPPKEQMAKDKVSLTCMITDFFPEDITVEWQWNGQPAENYKNTQPIMDTDGSYFVYSKLNVQKSNWEAGNTFTCSVLHEGLHNHHTEKSLSHSPGK
B2: hz4D8 (antibody, human IgG1, kappa)
light: DIQMTQSPSSLSASVGDRVTITCKASQDVHTAVAWYQQKPGKAPKLLIYWASTRHTGVPSRFSGSGSGTDYTLTISSLQPEDFATYYCQQHYTTPYTFGQGTKLEIKRTVAAPSVFIFPPSDEQLKSGTASVVCLLNNFYPREAKVQWKVDNALQSGNSQESVTEQDSKDSTYSLSSTLTLSKADYEKHKVYACEVTHQGLSSPVTKSFNRGEC
heavy: EVQLVESGGGLVQPGGSLRLSCAASGYTFTDYNLDWVRQAPGKGLEWVADINPINGATLYNQKFKGRFTISRDQAKNSLYLQMNSLRAEDTAVYYCARYYGDYDAMDYWGQGTLVTVSSASTKGPSVFPLAPSSKSTSGGTAALGCLVKDYFPEPVTVSWNSGALTSGVHTFPAVLQSSGLYSLSSVVTVPSSSLGTQTYICNVNHKPSNTKVDKKVEPKSCDKTHTCPPCPAPEAAGAPSVFLFPPKPKDTLMISRTPEVTCVVVDVSHEDPEVKFNWYVDGVEVHNAKTKPREEQYNSTYRVVSVLTVLHQDWLNGKEYKCKVSNKALPAPIEKTISKAKGQPREPQVYTLPPSREEMTKNQVSLTCLVKGFYPSDIAVEWESNGQPENNYKTTPPVLDSDGSFFLYSKLTVDKSRWQQGNVFSCSVMHEALHNHYTQKSLSLSPG
B3: TFPI-24 (antibody, human IgG1, lambda)
light: not shown
heavy: EVQLVESGGGSVQPGRSLRLSCAVSGLTIDNYAMQWVRQRPGKGLEWVSGISGNSRSIGYADSVKGRLTISRDNAKNSLYLQIDSLRADDTALYYCAIFLHESDYWGQGTLVTVSSASTKGPSVFPLAPSSKSTSGGTAALGCLVKDYFPEPVTVSWNSGALTSGVHTFPAVLQSSGLYSLSSVVTVPSSSLGTQTYICNVNHKPSNTKVDKKVEPKSCDKTHTCPPCPAPEAAGAPSVFLFPPKPKDTLMISRTPEVTCVVVDVSHEDPEVKFNWYVDGVEVHNAKTKPREEQYNSTYRVVSVLTVLHQDWLNGKEYKCKVSNKALPAPIEKTISKAKGQPREPQVYTLPPSREEMTKNQVSLTCLVKGFYPSDIAVEWESNGQPENNYKTTPPVLDSDGSFFLYSKLTVDKSRWQQGNVFSCSVMHEALHNHYTQKSLSLSPG
B4: TFPI-118 (antibody, human IgG1, lambda)
light: not shown
heavy: B3 heavy with S11L, R40A, L68F, I83M, D84N, D89E
B5: 2A8-200 (antibody, human IgG1, lambda)
light: DIELTQPPSVSVAPGQTARISCSGDNLRNYYAHWYQQKPGQAPVVVIFYDVNRPSGIPERFSGSNSGNTATLTISGTQAEDEADYYCQSWWDGVPVFGGGTKLTVLGQPKAAPSVTLFPPSSEELQANKATLVCLISDFYPGAVTVAWKADSSPVKAGVETTTPSKQSNNKYAASSYLSLTPEQWKSHRSYSCQVTHEGSTVEKTVAPTECS
heavy: QVQLVESGGGLVQPGGSLRLSCAASGFTFRSYGMDWVRQAPGKGLEWVSSIRGSRSSTYYADSVKGRFTISRDNSKNTLYLQMNSLRAEDTAVYYCARLYRYWFDYWGQGTLVTVSSASTKGPSVFPLAPSSKSTSGGTAALGCLVKDYFPEPVTVSWNSGALTSGVHTFPAVLQSSGLYSLSSVVTVPSSSLGTQTYICNVNHKPSNTKVDKKVEPKSCDKTHTCPPCPAPEAAGAPSVFLFPPKPKDTLMISRTPEVTCVVVDVSHEDPEVKFNWYVDGVEVHNAKTKPREEQYNSTYRVVSVLTVLHQDWLNGKEYKCKVSNKALPAPIEKTISKAKGQPREPQVYTLPPSREEMTKNQVSLTCLVKGFYPSDIAVEWESNGQPENNYKTTPPVLDSDGSFFLYSKLTVDKSRWQQGNVFSCSVMHEALHNHYTQKSLSLSPG
B6: 6B7.c5 (antibody, mouse IgG1, kappa)
light: B1 light with H30I, R45K, D60V, C65S, S76I, T93S, M106I
heavy: EVLLQQSGPELVKPGSSVKIPCKASGYTFTDYTMDWVKQSHGKSLEWIGDINPSNGGSIYNRKFKGKATLTVDKSSSTAYMELRSLTSEDTAVYYCARMHYNYDGFPYWGQGTLVTVSAAKTTPPSVYPLAPGSAAQTNSMVTLGCLVKGYFPEPVTVTWNSGSLSSGVHTFPAVLQSDLYTLSSSVTVPSSTWPSETVTCNVAHPASSTKVDKKIVPRDCGCKPCICTVPEVSSVFIFPPKPKDVLTITLTPKVTCVVVDISKDDPEVQFSWFVDDVEVHTAQTQPREEQFNSTFRSVSELPIMHQDWLNGKEFKCRVNSAAFPAPIEKTISKTKGRPKAPQVYTIPPPKEQMAKDKVSLTCMITDFFPEDITVEWQWNGQPAENYKNTQPIMDTDGSYFVYSKLNVQKSNWEAGNTFTCSVLHEGLHNHHTEKSLSHSPGK
B7: 7A4.D9 (antibody, mouse IgG1, kappa)
light: DIVLTQSPASLAVSLGQRATISCRASKSVSTSGYTYMHWYQQKPGQPPKLLIYLASNLESGVPARFSGSGSGTDFTLNIHPVEEEDAAAYYCQHIRELPFTFGSGTKLEIKADAAPTVSIFPPSSEQLTSGGASVVCFLNNFYPKDINVKWKIDGSERQNGVLNSWTDQDSKDSTYSMSSTLTLTKDEYERHNSYTCEATHKTSTSPIVKSFNRNEC
heavy: EVQLQQSGPELVKPGASVKMSCKASGYTFTSYVMHWVKQKPGQGLEWIGYLNPYNDGTKYNEKFKGKASLISDKSSSTVYMELSSLTSEDSAVYYCATTLLYAMDYWGQGSSVTVSSAKTTPPSVYPLAPGSAAQTNSMVTLGCLVKGYFPEPVTVTWNSGSLSSGVHTFPAVLQSDLYTLSSSVTVPSSTWPSETVTCNVAHPASSTKVDKKIVPRDCGCKPCICTVPEVSSVFIFPPKPKDVLTITLTPKVTCVVVDISKDDPEVQFSWFVDDVEVHTAQTQPREEQFNSTFRSVSELPIMHQDWLNGKEFKCRVNSAAFPAPIEKTISKTKGRPKAPQVYTIPPPKEQMAKDKVSLTCMITDFFPEDITVEWQWNGQPAENYKNTQPIMDTDGSYFVYSKLNVQKSNWEAGNTFTCSVLHEGLHNHHTEKSLSHSPGK

Key:
[1] = target: endogenous TFPI in human plasma (human), P10646; experiment: cell-based or functional assay
[2] = target: endogenous TFPI in human plasma (human), P10646; experiment: cell-based or functional assay; remark: listed apart in the source

Binder	TGA Velocity Index at 20 nM [1]	TGA Velocity Index at 20 nM [2]	Dilute PT EC50 [1] [nM]	TGA Velocity EC50 [1] [nM]	dilute prothrombin time EC50 [1] [nM]
B1	13.5	26.3	–	–	–
B2	15.7	–	0.47	3.9	0.47
B3	23.2	–	–	–	0.57
B4	–	–	1.16	7.72	1.16
B5	–	–	1	–	–
B6	–	23.5	–	–	–
B7	–	23.3	–	–	–

From patent US20210101998A1
